Source: doi:10.1101/2021.08.25.457680
Where no end group is shown, it is not given here.

Key:
[1] = molecular target: hDLG1 PDZ1+2 tandem (human) (UniProt Q12959); test: NMR titration
[2] = molecular target: hDLG1 PDZ1 domain (human); test: NMR titration
[3] = molecular target: hDLG1 PDZ1 domain (human); test: ITC
[4] = molecular target: hDLG1 PDZ2 domain (human); test: ITC
[5] = molecular target: syntenin-1 PDZ1 domain (human); test: NMR titration
[6] = molecular target: syntenin-1 PDZ2 domain (human); test: NMR titration
syntenin-1 PDZ2 domain (human), sequence (O00560 whole entry, the tested form may be a part): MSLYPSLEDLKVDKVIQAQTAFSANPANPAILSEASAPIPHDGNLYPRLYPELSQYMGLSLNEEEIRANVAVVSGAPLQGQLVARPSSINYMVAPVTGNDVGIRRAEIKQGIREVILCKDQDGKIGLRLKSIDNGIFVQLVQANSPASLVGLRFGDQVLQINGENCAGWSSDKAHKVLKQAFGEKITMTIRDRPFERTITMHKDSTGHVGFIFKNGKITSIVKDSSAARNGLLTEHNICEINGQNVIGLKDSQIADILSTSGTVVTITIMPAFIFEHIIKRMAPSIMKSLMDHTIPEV

hDLG1 PDZ1 domain (human), sequence (Q12959 219-551): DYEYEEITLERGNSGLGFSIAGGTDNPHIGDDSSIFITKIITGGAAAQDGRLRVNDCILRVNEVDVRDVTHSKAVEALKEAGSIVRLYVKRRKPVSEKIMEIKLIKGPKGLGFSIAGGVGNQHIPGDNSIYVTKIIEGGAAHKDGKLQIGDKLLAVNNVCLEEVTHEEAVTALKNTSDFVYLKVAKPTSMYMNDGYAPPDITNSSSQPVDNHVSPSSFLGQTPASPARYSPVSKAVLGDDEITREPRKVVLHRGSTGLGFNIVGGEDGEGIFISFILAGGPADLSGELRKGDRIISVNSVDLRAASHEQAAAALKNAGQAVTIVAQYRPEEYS
hDLG1 PDZ2 domain (human), sequence (Q12959 219-551): as above
syntenin-1 PDZ1 domain (human), sequence (O00560 whole entry, the tested form may be a part): as the sequence (O00560 whole entry, the tested form may be a part) above

Molecule: Tax2 10mer peptide (last 10 amino acids of Tax-2)
- Kd [1]: > 5000 µM

Molecule: SEKHFRETEV (not fully specified (C-terminus)) [C-terminally amidated Tax-1 10mer peptide (Tax-1mod)]
- Kd [2]: 951 µM

Molecule: SEKHFRETEV [Tax-1 10mer peptide (last 10 C-terminal amino acids of Tax-1)]
- Kd [3]: 2.7 µM
- dH [3]: -8 kcal/mol
- stoichiometry N [3]: 1.03
- Kd [4]: 0.9 µM
- dH [4]: -10.4 kcal/mol
- stoichiometry N [4]: 0.99
- Kd [5]: 2580 µM
- Kd [6]: 1550 µM
